The results in this text go back to the DeepSol protein solubility set.

A short description of this series: soluble on expression in E. coli; label from the status in PepcDB or PDB records.
Take “CILRFIACNGQTRAVQSRGDYQKTLAIALKKFSLEDASKFIVCVSQSSRIKLITEEEFKQICFNSSSPERDRLIIVPKEKPCPSFEDLRRSWEIELAQPAALSSQSSLSP”: the “soluble on expression in E. coli” value was “soluble”.
On to “MSEPADLIGEIDALGIKLQEARASITRRFIGQERVVDLTLTALLCGGHALLIGLPGLGKTRLVETLSTVMGLHGNRIQFTPDLMPADILGSEVLDTAEDGSRRFRFIPGPIFCQLLMADEINRASPRTQSALLQAMQEKTVTVAGENRPLGTPFHVLATQNPIEQEGTYPLPEAQLDRFLVQIDVDYPDRATEREILLATTGVEEAEAHQVMSQADLLGAQVLLRRMPVGESVVEMILDLVRAFRPDEPGVSDRVRDTVAWGPGPRAAQALMLTVRARALLQGRLAPSPEDVLDMARPVLSHRMALNFAARARGDTLAGLIDETAASLTRTEAAALEHHHHHH”, for which the “soluble on expression in E. coli” value is listed as “not soluble”.
As to “MAINLQTLFKKKREGKKITMVSTYDYWSAKLCDEVGIDCILVGDSLGTVVKGEGDTLSVTLEEIIYHTKCVMRGVKNAFVIADMPFMSYQVSMEKAVENCGRVIKETKAKAVKLEGGEEIAELVYKLTRIGIPVVGHVGFTPQHINVFGKPKVVGKKKEEEEKLRRDFRALEEAGAFMIVLESVPTHLAKELWKGSNSIVIGIGAGKYVDGQVLVFHDIVGLFEDFKPKFVRRYLEGAKLVKEALKNFKIDVEGGNFPSEEESYG”, the “soluble on expression in E. coli” value is on record as “not soluble”.
“SSAQFDHVTVIKKSNVYFGGLCISHTVQFEDGTKKTLGVILPTEQPLTFETHVPERMEIISGECRVKIADSTESELFRAGQSFYVPGNSLFKIETDEVLDYVCHLE”: the “soluble on expression in E. coli” value is listed as “not soluble”.
For “EQKVEAFNIQYKSRTSFKVQVKLNAQGKYQKSQVQSYLQQIGLNDGDLKQESGTLSADLIFTYTVPESNLFSRKNFDTLMKKINFNTTLKIDMVGKDEIMKKILQSTTFTNNLSSQTFQDQSIDLLPYLLYS”, the “soluble on expression in E. coli” value is given as “not soluble”.
As to “MRDAALRYPNILFDLDGTLTDPREGITRSVQFALARLGIDEPDLARLEHFIGPPLLQCFMQTYGFDEARAWEAVNHYRERFRVTGLYENRVFDGIPELLEALVGRGHTLYVATSKPGVFAREIARHFAFDRHFKAIYGSELDGTRTHKEELIRHLLDSEGLAAEHCLMIGDRMHDLLGASRNGVACIGVGYGFGSEDELRAHQPTHYCADLAALRQVLESH”, the “soluble on expression in E. coli” value is given as “not soluble”.
“MNSPGVSANFFIPLSFDATSLIKYKLSDDLLARVAASGSLRSSSCRSAVWRLVLRCLPYETSDWEISLSRSRNLYRAHKENHLIDPHDTKFSQDPEFNNPLASIEQNPWNTFFEDNDLRDIIGKDVSRTFPEIEFFQNTSIRQMMSDILLVYAKEHPFVNYRQGMHEILAPLIFVIYSDNEAFQHAKENDELKMLTVEEEDILNCLFCKEYLEQDSYNLFCSVMLEVSRWYEEPTVTESPKRPIPKEPYMRVQDSAPASRLMEDLIDIGNLLHEIDPTLAKHLSTLDIPPQLYGIRWLRLLFGRELPLHDLLFLWDVLLIDRPIAPLAKCMFVSLLVQIRHLLLSSDYGGCLQYLMRYPPIADIDSFVKLARHYRNPKKNAKPMIKSNNFSHITVAGSSHPNRTQRPQRPPAAVNSKNDGAESPSTILALAPVFQKVKNTIRDRSNTVSGPSSPRRSNEPLREPLRTPQKKDNWANEVQMMEEQVSTLQTRLNEQDMMCCQVSKALEIYAEDVRNAKSSELCAVLSQNLLELSKTLMSIKTVPVGTSPPKHSRNGISDIQPKPRDSQPIRQHNEMVDMATKRPPL”: the “soluble on expression in E. coli” value is “not soluble”.
On to “MSTLEIKNLHAQVVPADESAAPKPILKGVNLTIKSGETHAIMGPNGSGKSTLAYTLSGHPRYEVTDGEVLLDGENILDMDIDERARAGLFLAMQYPTEIPGVSMANFLRSAATAVRGEAPKLREWVKEVKQAQQDLKIDKAFNERSVNEGFSGGEKKRHEVLQLDLLQPKFAVMDETDSGLDVDALRIVSEGINRYQEKSNGGILMITHYKRILNYVQPDFVHVFANGQIITSGGPELADDLEANGYDRFLA”, for which the “soluble on expression in E. coli” value is recorded as “not soluble”.
As for “MAIPYVVRKKADLTSGERKELWYGVPSKIQDRGGVQNKELAQVVELRGGFHRGQVEGILVEVADAIRYLLSMGQSVTIDGLGTFQTALTSPGFERPEQVTPGQVSVSRVYFVANSALRDRMKKTKCMRIPFKYYMSESMLTKEMKKADQEQEQTEE”, the “soluble on expression in E. coli” value is given as “not soluble”.
As to “GPGSMDLNMRLLTRIFTYRRNHAEQGTIMSSKIAELSGRILSQQQYSQILEQRRWLQGLLKEVSLDMGAKEKEKSASPVVLPYGSIVSGTSFKDGDADYIVSFPIVSESTRQSGACVIDRERQEKFLSDIFSHIRKRNSDVELHPQRIFRARVPIVQYVRKSGQESARFDLSLSLDGLKNSLLLRQYMAGDPRLRLGVLGAKQWGREQQILNARRGWISPYALSIMYIHYMKETGRTALSFDEEAVSQRVNAIVSTAAESEGDISHVDELASILPLQEADMLLVEKDVFDFFAFYGTPGGFDFDASVVDIRSRERFSSKDQWCQLLDQLDERERWNLLGHEVILLRDPFEPHSLGRSVDFFRGEEIRERFRSAAVRKEPLSLFAFL”, the “soluble on expression in E. coli” value was “not soluble”.
For the sequence “MALVIAGERSGVGKTTVTLTLLASLCRRSAIVQSFKVGPDYIDPMFHTYVTGRACRNLDPVLTSEAYVQQCFARHYQESEYALVEGVMGLFDGIGRQEAGGQGAGGRENNFSTSHSALTTDFASTAHVARLLDLPVVLVIDCSRLSGSVAAIAHGYCSFDPRIKMAGVVLNRVGSDRHLSLLQDALKPLQLPILGVLRRQDDITIPDRHLGLIPTAELPELNAVINRLADLGDTCFDWQNLLPLLQAKEVGGREQGAGSRGQGAGEAGEAGGELTARFSPNPQSPIPNPQSPVPHPPKIAVARDRAFNFYYQDNLDLLQQLGAELVFWSPLTDGELPSGVRGMYFGGGFPEVFASQLAENSSARDAVKQAILAGMPTIAECGGLMYLCEQIIDFEGQSWPMVGVLPTSAAMGGRLTLGYRRAVALQDSLLVNVGTHIYGHEFHRSRLITAPTQPLFETYRYDCPENMGCEGWGFPKNIHASYVHLHWGESGEIPRQFIQQCAYFGETIDLVHMYLEHHHHHH”, the “soluble on expression in E. coli” value is recorded as “not soluble”.
On to “MSEFLNENPDILEENQLPTRKEDSTKDLLLGGFSNEATLERRSLLLKIDHSLKSQVLQDIEVLDKLLSIRIPPELTSDEDSLPAESEDESVAGGGKEEEEPDLIDAQEIYDLIAHISDPEHPLSLGQLSVVNLEDIDVHDSGNQNEMAEVVIKITPTITHCSLATLIGLGIRVRLERSLPPRFRITILLKKGTHDSENQVNKQLNDKERVAAACENEQLLGVVSKMLVTCK”, for which the “soluble on expression in E. coli” value is on record as “soluble”.
On to “MMIDPELRPAFLPAGKLRAAINLGNPILAGTDAAGQAVGVSVDLAREFARRLNAGIELRVFDTAGQSVDAVTREEADIGFFAIDPARGAGIAFTGPYVLIEGAYLVRDDSPLQANEDVDRAGKRVTVGKGSAYDLHLTRALQHAEIVRAASSQAVVDTFLARRLDVAAGVKQQLQADARRVGGVRLLPGRFMVIRQAMGLPKARGDAAAACLDAFVESMKGNGFVAQALARHGLEHHHHHH”, for which the “soluble on expression in E. coli” value is recorded as “not soluble”.
As to “VADVVPLDANNRILVHQGLMRIRAGRARPGLRAILEVARREPARITSTDLGFILGPRLNAAGRLDDMSLGIECLLCDDPTRAREMAVQLDELNQDRKSIEQGMQREALAQLKDLPMESMPFGLCLFDAEWHQGVIGIL”, the “soluble on expression in E. coli” value is reported as “not soluble”.
Regarding “MSLGQSKVVYLNTHSTSSAGVETLNELCRLAEPGLETMLRQALDQVDDALFDRAERAANNADQALFFATMRQVRMSRRMVVQTFTQEMESAFSRLTQPHSSQTQEPAATAREDYSLELMDETVVEERVAAETVVGKLRTRSVFPLAQLQSRLDYLVVERKVDERNNPLDPRQVVDAFAVAMERLNIEIQPKLIIFKLFEKQALRQLPALYEAANRLLIDAGIMPKLRATGEPLVANEDRVQAPESGHQTSVDSEADTLTGNGSATLELLQGLLAQARGGNQPVPSTARCAGGASHSDLVQALSALQQQPRFANNETGGAQPFAAEELKALLGSALFVAPGGLPQPIERAADDTIDIVSMLFDIILDDSRLAPSIKAVIARLQIPVLKVAMLDRSFFNSRQHPARALINELAHAAMGWVEPENPSADPLYRKMNEVMNRILEGFEEDIVLFEQVLQDFRLFLEQERERAQTVEARTCQAAEGKAKVEDARERVQAEIERRLRGGSVPSVVHQILEGPWFKVLFITCVKDGPQGAVWESQLELMDRLIWSVQPNADPERRQDVLARIPALLNDLREGLNAILYNPFEMTRLFEELEAEHIRCLSAPPADLSDNTVNVEQGSEDESAFAQEGSSYDCDEPSVAAEPPQLTEEQCLREECLQRLVRVDLGTWFEFSTDAGRQLRAKLSARLNGGRRLIFVNRAGFKLADKKTEEVAADLSSGKAFILDHNMLFDKALEQVITNLRDLRVEQAEGHHHHHH”, the “soluble on expression in E. coli” value is given as “not soluble”.
With “GCPHDCVFCNQNTITGEESKVNGDYVKSTVEDYLDTIPNKSATIEISFFGGTFTAINIEKQKELLSVARHYKEIGKIKYIRLSTRPDYIDDEILTNLKNYSVDIIELGVQSLDSEVLLKSGRGHTKEDVVKASRLIKKYGFTLGHQIMLGLPGDNAEKDIETTRKVICMKPNICRIYPALVIKDTAMEKMYNRGIYKPYDIEECVEI”, the “soluble on expression in E. coli” value is recorded as “not soluble”.
For “MDLMSFKEKEISKKDCLELFEDTENFFDVIKLADSIRKDIVGDTVTYVVNANINFTNVCSGTCKFCAFKAEHGDPNAFFLNPDEVAKKALEARKIGATEVCIQGGLLKEIDTYFQAEILKKVKKITEPYEEIVVHAFSPMEVKSAAENAGLSVNEALKILKENGLNSMPGTAAEILNDEIRSEICPTKLKTSEWIDVVTNAHKTGIKTTCTMMYGHIEENKHLAEHLSILRKIQKETGGFTEFVPLTFLHENAPLHHMERVKSGASGMLDLKTYAISRIFFKDYIKNIQTSWVKLGTKLSQVSLNCGANDIGGTLMEESISKAAGGSYGTFMSEEKLKDMILAVGRIPKQRNTAYEIIE”, the “soluble on expression in E. coli” value is given as “not soluble”.
As for “MVVLNPNNWHWVDKNTLPWSKDYLNGKLTSLSTVSSDGKSKIELTQVSSITGDSNVSQRKGKPICYFDLQLSMNVKVTNLDTNKDDEDDDGILADGKLEIPEFMHDESDIPILSQGFDAFDGLVRSEFVPKVVETLLKYQDDLIKEHSKDIQV”, the entry is “soluble”.
Turning to “MATSKLQALWNHPAGPKTIHFWAPTFKWGISIANIADFQKPPENISYLQQIAVTCTGMIWCRCSTIITPKNWNLFSVNVAMAATGIYQLTRKIKYDYVSEAEAAVEIEG”, the “soluble on expression in E. coli” value is “not soluble”.
For the sequence “MTLLRVGGVPEPFNEIFMQAQEGALPSTKLQVEFLGVAGGSGAALEMLAKCELDVAVTLTESAVARTKAAASGLAVHSVYVASPLAWGVAVSSKKTDWTDLNSLDAAVLRGESIRAGFSRRGSGSHLLLSVFASDRGWISTGIQNDILKSFECGSFDGLIQAAVAGDIDMFLWETCFTKECAATRQGLIRLVGEYAPSWPAFVLVCRDDAHVRAAVSELKREIEPLQRKFCTGEGLDILQNKYGFSLESAKLWLSRLQFAEPDEALSAEQWRSVERALELTAGSRSSSR”, the “soluble on expression in E. coli” value is recorded as “soluble”.
For “MNVKEVVTEEQLHDVLPVLQQLRTKLSKEETSSLFRNMKEENYKLFSLRNEDDEVVSLAGVAICTNFYNKKHVFVYDLVTAEAHRSKRHGKVLLSYIENWGKENECESIVLTSAFSRIDAHRFYEREGYDKVSYSFHKEL”, the “soluble on expression in E. coli” value is on record as “not soluble”.
